Data from paper doi:10.1101/2022.02.28.481274 (bioRxiv, 2022).

T1: NocΔCTD-His6 (Bacillus subtilis, UniProt P37524 1-242)
T1 sequence: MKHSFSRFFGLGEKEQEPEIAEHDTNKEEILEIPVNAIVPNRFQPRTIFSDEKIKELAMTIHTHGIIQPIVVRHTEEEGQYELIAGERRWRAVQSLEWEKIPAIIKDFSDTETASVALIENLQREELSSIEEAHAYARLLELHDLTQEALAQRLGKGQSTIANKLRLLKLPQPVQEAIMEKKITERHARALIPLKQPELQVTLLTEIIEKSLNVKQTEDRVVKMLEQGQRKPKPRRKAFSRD

B1: Bacillus subtilis NocΔCTD-His6 (domain or fragment, UniProt P37524 1-242, looked up)
chain: T1 sequence
B2: 16-bp NBS (dsDNA)
DNA 1: TATTTCCCGGGAAATA
DNA 2: TATTTCCCGGGAAATA

Columns and labels:
crystal structure = molecular target: the molecule itself; test: crystal structure
NocΔCTD-His6 = molecular target: T1, NocΔCTD-His6; test: X-ray crystallography

Binder | stoichiometry N (crystal structure) | binding result (NocΔCTD-His6)
B1 | 2 | –
B2 | – | binds
